PMC5145273

Target: FabL9, soluble purified Fab
Assay: ELISA

IC50: 260 nM
Substance: GluA4_(flip) ligand-binding domain (LBD), rat (domain or fragment)
